Source: the DeepSol protein solubility set

Assay: soluble on expression in E. coli; label from the status in PepcDB or PDB records

Sequence	soluble on expression in E. coli
MVMKQTKQTNILAGAAVIKVLEAWGVDHLYGIPGGSINSIMDALSAERDRIHYIQVRHEEVGAMAAAADAKLTGKIGVCFGSAGPGGTHLMNGLYDAREDHVPVLALIGQFGTTGMNMDTFQEMNENPIYADVADYNVTAVNAATLPHVIDEAIRRAYAHQGVAVVQIPVDLPWQQIPAEDWYASANSYQTPLLPEPDVQAVTRLTQTLLAAERPLIYYGIGARKAGKELEQLSKTLKIPLMSTYPAKGIVADRYPAYLGSANRAAQKPANEALAQADVVLFVGNNYPFAEVSKAFKNTRYFLQIDIDPAKLGKRHKTDIAVLADAQKTLAAILAQVSERESTPWWQANLANVKNWRAYLASLEDKQEGPLQAYQVLRAVNKIAEPDAIYSIDVGDINLNANRHLKLTPSNRHITSNLFATMGVGIPGAIAAKLNYPERQVFNLAGDGGASMTMQDLATQVQYHLPVINVVFTNCQYGFIKDEQEDTNQNDFIGVEFNDIDFSKIADGVHMQAFRVNKIEQLPDVFEQAKAIAQHEPVLIDAVITGDRPLPAEKLRLDSAMSSAADIEAFKQRYEAQDLQPLSTYLKQFGLDDLQHQIGQGGF	soluble
AIASQFDPDKFKQEQKARWNQGARSTWTLWKQTQVEDTPAKFFLGLVPIRPGVKVLDLACGSGETSLQVAQLVSSHLPSDSKDAKIVCVDISEEMLRVLSQRAQELGLSSVVETCCEDAENINFGTHYFDMVMSQFGVMFLPHLPEDLANIRKMMKPGSLFCCVVWGEEKDCHIFYAARSVVSPPPPPPGTPVSYGTKEKVMEALRKAEFSDVKAVEFQVVHETKDAEEYITLMSGVNQWLEKSLGEKGSGPWQKLVEYCNNSYRTSRGTLQFPNVCVGITAIA	soluble
MDILVREVDVSEYVSIVVNRDSFNTIEYFICAPFSGQRLRGTARPGQTVVFRQQNLTNVVEKLGKNSFRCIVKADELPKSFQKSQEFVVARGRFQQFLKVAEGSRLSKLEPMSDTEMASNAIKDVREMAEQDLIGSRKTPFYEMFTRFAQQKVTSSDQEDTIENLHTRNNYEDIFDVLKSNLNKNEQLNDIDGRNNQKSDKMTEVDQTDKMHLTELEVKQKV	not soluble
MKIWSKEEVVNKLHEIKNKGYLSVPTDMFRTDDGVVGQILERQFGVQENNITLGDLGEFELKGMRNRKAKSNLTLFHKKPVAGQTVIQIFNRFGYVKPSSRNPEVMKKKLFTTIKGGRLNNLGLTLNAKHASEINLYYQDEYLSTWDLNLSKIEKLVLVFAETIGRANSPEEQFHFTKAYMLTEINDITSLINDGVLVMDLCIDQDLSKSKGPHDRGPHLRIPISKLDKLYRNIERLL	soluble
TTHFTVADRWGNVVSYTTTIEQLFGTGIMVPDYGVILNNELTDFDAIPGGANEVQPNKRPLSSMTPTILFKDDKPVLTVGSPGGATIISSVLQTILYHIEYGMELKAAVEEPRIYTNSMSSYRYEDGVPKDVLSKLNGMGHKFGTSPVDIGNVQSISIDHENGTFKGVADSSRNGAAIGINLKRKLEHHHHHH	soluble
MMGYNFNEKPLLIFWETTKACGLKCEHCRASAILEALPDEMNYDESIDFLSHIKEFGKPYPIVILTGGDMLRKRRINDIMKYLKDAEIPFSVSPAVTEMLTDERIKSFLEFGVSSVSISLDGMKDVHEKVRGVPGVFDDTVRVVEKLIKEGIPMQINTVVMRSTVNDLPKVLKLILDKSVKVWEVFFLIKTGRGIDREDLSPEEYEDVNKYLLYATGYGIRIRTVESPIFRRITLQSGSTGRIEGGPLYQKLVSETEKIIGKKPSAIAKSVIPTRDGYGIIFVGHNGDVYPSGFLPYKVGNVKNQSIVDIYRKSELLRKIRDPDNLVGKCGFCEYRSVCGGSRARAFAYSSDPFGTDPSCSYMPKSVVSA	not soluble
MTNSSNLIDSLEVYVLNNPDEVKPHWVSHFIVPTANELLIKIKNKDGHSGFGLATSYTDIAPIIKPFSNGLQDLIIGEDPFCPEKIYEKIFKLTDTRLSSEKGWSREALIRISAALDIACWDLIGKASNIPLYKLFGGFRNKIPVYVTCAYYRDGKDEKELRDEIKKLVNIGHKSFKVKVGGLSIKEDVKRLEIIRDEIGDQKGLMIDVNRAWDLKTAIEGVKEFEKFKPTWIEEPVRWEDDRRTLKLLSKQTKIPLSGGESEVTIYGCRSMIEEDAIQILQFDCTMFGGFTNGKKLSALCELNHIDVAPHHDCYIHAPLVASTPAGRIVESFDDERDPLQAQLFENPHKMSEGWIHLNKKPGLGLEISDAALKKFGKLVYKNK	soluble
MPNELSRSLSPYLLMHANDPVEWRMWSKETLRIATEENRLIFLSIGYSSCHWCHVMHEESFVDPDVAEILNNNYIPVKVDREERPDLDSYFMKVSQVINGNGGWPLNIILLPDARPVFAMTYVPKEDRNGMTGLKTILIQLSQMYLKDPDQFKDQAKAVSDAMEERESV	soluble
MPSAHSVKLRPLEREDLRYVHQLDNNASVMRYWFEEPYEAFVELSDLYDKHIHDQSERRFVVECDGEKAGLVELVEINHVHRRAEFQIIISPEYQGKGLATRAAKLAMDYGFTVLNLYKLYLIVDKENEKAIHIYRKLGFSVEGELMHEFFINGQYRNAIRMCIFQHQYLAEHKTPGQTLLKPTAQ	soluble
SPCKYSRSEVVLTFFERSPLDQVLKNDNVHKIQPSFQSPVKISEIMRSNGFCLANTETIVIDHSIPNGRDQQLGVDQTEHLFENGSEFPSELEDGDDPAAYVTNLSYYHLVPFETDIWD	soluble
MAHHHHHHMPIPSPPPPMRFVPNGVGGGGARDLTAVKEPNFEVLETSSPVPARVIHNAPASAVPSGTQRPVEAPPSTHATGAQHHPKAVHSPPLACPALAMTSTPASSSSSSSSQQVAQLWQLVQDLTAENAVLQQRVRVLMEGETHDAILPGMLTAPSSPEETEALLLRVRRLEAALKVEAMEREALEVRLQAQEQVLTRLLRR	soluble
MSLAQNSSIDYPSYQKRNTDALEISRIVRNDTATILYMDAYSRPNYWIRLASELSLHGVQSGKKYPVIRSQGFELDKQVYMPASGNVTFTLQFAPIDPQDRTIDFVESNNEEDFRIEGICLDASVPKKKVHCHLAGKMANRPQTSRLILIESNKNTRGTPWISIPVRNGVFEYDFYTDHEKAYELICWDDLLNGCWYPVTFFAENGTVSFTISAIDARPPYRIETLNSLTTALRLFEAEGKDKFSFDELNARRDTLEKYGRFESEAMQALWKKFDQVKDNPEERNKLFRERDRLEESGEAFTKEAKALIKEREQLFRKKVIWETEQASQHPSLVGLFILKMKVENARKDEDVTPYLEAFQKVYASRYPEHPYTREMQMFIDNNQPKTGNRFIDFSAPDLNGNMVQLSEQIRGKVALIDLWASWCGPCRTTSKQLIPIYEKYKDRGFTVIGVAREQNSDIRMREAIRKDGYPWLNLIELNDVQQIWSKYRIPNAAGGTFLVNAQGIILAVNPTAEEVERILQKELEGHHHHHH	soluble
MRGSHHHHHHLVPRGSVQVISSYDQFKQVTGGDKVVVIDFWATWCGPCKMIGPVFEKISDTPAGDKVGFYKVDVDEQSQIAQEVGIRAMPTFVFFKNGQKIDTVVGADPSKLQAAITQHSA	soluble
SGPMDSRALRQGNRLLGNAEGCAALEITMSGPLLRFNTDAVIAVTGAHIPITLDGESCAMNTALLVRAGSTLALGTIAGAGVRSYLCVRGGLDVPDYLGSKSTFTLGQFGGHGGRALRAGDVLHIARLVDRTAGQKIADEQLDALQDVRQIRVIYGPHAAPEYFTESYIETFFATDWEVHFNSSRTGVRLIGPKPEWVRADGGEAGLHPSNIHDNPYAIGAVDFTGDMPVILGPDGPSLGGFVCPVTIIEADLWQLGQLKAGDKVRFYPVSVEACHAAMNSQGPLPQGPLNTSGSGL	not soluble
MSISISYSTTYSGWTVADYLADWSAYFGDVNHRPGQVVDGSNTGGFNPGPFDGSQYALKSTASDAAFIAGGDLHYTLFSNPSHTLWGKLDSIALGDTLTGGASSGGYALDSQEVSFSNLGLDSPIAQGRDGTVHKVVYGLMSGDSSALQGQIDALLKAVDPSLSINSTFDQLAAAGVAHATPAA	soluble
MGSDKIHHHHHHMRVIPPIKSIIYFEAAARLQSFKLAAMELNVTPGAISHQISTLEDFIGKKVFERGSRRVTLTYCGLRYYSRISIILQNMEEATVDLGIEGSKPKIKIAIPPSLLKNWLLPRLVDDKLKDLNRSVEFIDTLDYLEFSKCDLDLAIRYGYDSWDNLYSVFLFHEEMIPVCHPNYFISEFTDFTQEIIDNHTLIFTNNRLVQWDIVMQYFGLERKSTQSKLIFQNSIQAIEAAIQGAGIAYVNRILVSKELSNGRLIQPFDIYMPKHKSPAYHLVSTYEHMQDEATFKLYQTILEFAKSTPHQHIVNAQAKQNAWLEHAV	not soluble
